From US20110263824A1
Where a chain is given by its changes, count along the chain named. In names and notes the source's numbering stands.

B1: TM2 K26A (protein)
chain: MSDVQSSLTGTWYNELNSKMELTANADGTLTGKYLSKVGDVYVPYPLSGRYNLQPPAGQGVALGWAVSWENSKIHSATTWSGQFFSESSPVILTQWLLSSSTARGDVWESTLVGNDSFTKTAPTEQQIAHAQLHCRAPRLK
B2: tamavidin 2 (wild type) (protein)
chain: B1 chain with A26K
B3: TM2 D40NR104EK141E (protein)
chain: B1 chain with A26K, D40N, R104E, K141E
B4: TM2 K141E (protein)
chain: B1 chain with A26K, K141E
B5: TM2 K73Q (protein)
chain: B1 chain with A26K, K73Q
B6: TM2 R104E (protein)
chain: B1 chain with A26K, R104E
B7: TM2 R104EK141E (protein)
chain: B1 chain with A26K, R104E, K141E

Columns and labels:
human serum protein [1] = assay: adsorption of TM2 variant to human serum protein-immobilized magnetic beads, western blot quantification
human serum protein [2] = assay: adsorption to human serum protein-immobilized magnetic beads, western blot quantification
human serum protein [3] = assay: summary of Example 1-9: adsorption to human serum protein-immobilized magnetic beads
human serum protein [4] = assay: human serum (1:800) adsorbed to TM2-immobilized magnetic beads, HRP-labeled anti-human IgG detection
human serum protein [5] = assay: adsorption of TM2 to human serum protein-immobilized magnetic beads, western blot quantification (reference)
human serum protein [6] = assay: human serum (1:800) adsorbed to TM2 variant-immobilized magnetic beads, HRP-labeled anti-human IgG detection

Binder | Non-specific binding of serum protein (%) (% of wild type TM2) (human serum protein [1]) | decrease of adsorption to human serum protein compared to the wild type TM2 (human serum protein [2]) | non-specific binding and adsorption relative to wild type TM2 (% of wild type TM2) (human serum protein [3]) | Non-specific binding to serum protein (A450) (human serum protein [4]) | Non-specific binding of serum protein (%) (% of wild type TM2) (human serum protein [5]) | Non-specific binding to serum protein (A450) (human serum protein [6])
B1 | 68 | 30% | 60 | – | – | –
B2 | – | – | – | 0.67 A450 | 100 | –
B3 | – | – | – | – | – | 0.45 A450
B4 | 58 | 40% | 60 | – | – | –
B5 | 55 | 40% | 60 | – | – | –
B6 | 90 | 10% | – | – | – | –
B7 | 25 | 70% | 20 | – | – | –
